US20090291890A1 (published 2009)
Where “and” joins values, the source holds several entries; their conditions need not be identical. Equal entries are not always repeated.

Biological target: Factor X (Homo sapiens (Human)) (UniProt P00742)

| Molecule | kcat/KM, TF-independent assay [M⁻¹ s⁻¹] | kcat/KM (M^-1s^-1), TF-dependent assay | kcat/KM, TF-dependent assay [M⁻¹ s⁻¹] |
| --- | --- | --- | --- |
| WT (NovoSeven®) recombinant human FVIIa (enzyme) | 9.8 |  |  |
| {Gla swap FIX/K43I}/Q286R/M298Q/Q366N-FVIIa (enzyme) | 84.9 | 1.69e+08 M⁻¹ s⁻¹ |  |
| T239V/Q286R-FVIIa (enzyme) | 11.8 | 8.84e+07 M⁻¹ s⁻¹ |  |
| T128N/P129A/Q286R/M298Q/Q366N-FVIIa (enzyme) | 64.6 | 1.42e+08 M⁻¹ s⁻¹ |  |
| {Gla swap FIX/M19K/E40L/K43I/Q44S}/Q286R/M298Q-FVIIa (enzyme) |  | 1.21e+08 M⁻¹ s⁻¹ |  |
| T128N/P129A/M298Q/H373F-FVIIa (enzyme) | 91.6 | 6.07e+07 M⁻¹ s⁻¹ |  |
| T128N/P129A/T239V/Q286R/M298Q-FVIIa (enzyme) | 230 | 1.04e+08 M⁻¹ s⁻¹ |  |
| Gla swap FIX/S52A/S60A/Q286R/M298Q-FVIIa (enzyme) | 989 | 1.8e+08 M⁻¹ s⁻¹ |  |
| T128N/P129A/M298Q-FVIIa (enzyme) | 90.8 | 6.29e+07 M⁻¹ s⁻¹ |  |
| M298Q-FVIIa (enzyme) | 69.9 | 6.76e+07 M⁻¹ s⁻¹ and 7.46e+07 M⁻¹ s⁻¹ |  |
| T128N/P129A/Q286R/M298Q/Q366N/H373F-FVIIa (enzyme) |  |  | 1.33e+08 |
| T128N/P129A/S222A/T239V/H257A/Q286R/M298Q-FVIIa (enzyme) | 179 | 1.21e+08 M⁻¹ s⁻¹ |  |
| WT (NovoSeven-RT®) FVIIa (enzyme) | 12.4 |  |  |
| T128N/P129A/T239I/Q286R/M298Q/H373F-FVIIa (enzyme) | 113 | 1.3e+08 M⁻¹ s⁻¹ |  |
| A175S-FVIIa (enzyme) ANAFLEELRPGSLERECKEEQCSFEEAREIFKDAERTKLFWISYSDGDQCASSPCQNGGSCKDQLQSYICFCLPAFEGRNCETHKDDQLICVNENGGCEQYCSDHTGTKRSCRCHEGYSLLADGVSCTPTVEYPCGKIPILEKRNASKPQGRIVGGKVCPKGECPWQVLLLVNGSQLCGGTLINTIWVVSAAHCFDKIKNWRNLIAVLGEHDLSEHDGDEQSRRVAQVIIPSTYVPGTTNHDIALLRLHQPVVLTDHVVPLCLPERTFSERTLAFVRFSLVSGWGQLLDRGATALELMVLNVPRLMTQDCLQQSRKVGDSPNITEYMFCAGYSDGSKDSCKGDSGGPHATHYRGTWYLTGIVSWGQGCATVGHFGVYTRVSQYIEWLQKLMRSEPRPGVLLRAPFP |  | 2.11e+07 M⁻¹ s⁻¹ |  |
| T239I-FVIIa (enzyme) ANAFLEELRPGSLERECKEEQCSFEEAREIFKDAERTKLFWISYSDGDQCASSPCQNGGSCKDQLQSYICFCLPAFEGRNCETHKDDQLICVNENGGCEQYCSDHTGTKRSCRCHEGYSLLADGVSCTPTVEYPCGKIPILEKRNASKPQGRIVGGKVCPKGECPWQVLLLVNGAQLCGGTLINTIWVVSAAHCFDKIKNWRNLIAVLGEHDLSEHDGDEQSRRVAQVIIPSTYVPGTINHDIALLRLHQPVVLTDHVVPLCLPERTFSERTLAFVRFSLVSGWGQLLDRGATALELMVLNVPRLMTQDCLQQSRKVGDSPNITEYMFCAGYSDGSKDSCKGDSGGPHATHYRGTWYLTGIVSWGQGCATVGHFGVYTRVSQYIEWLQKLMRSEPRPGVLLRAPFP |  | 2.62e+07 M⁻¹ s⁻¹ |  |
| Q286R/S222A-FVIIa (enzyme) ANAFLEELRPGSLERECKEEQCSFEEAREIFKDAERTKLFWISYSDGDQCASSPCQNGGSCKDQLQSYICFCLPAFEGRNCETHKDDQLICVNENGGCEQYCSDHTGTKRSCRCHEGYSLLADGVSCTPTVEYPCGKIPILEKRNASKPQGRIVGGKVCPKGECPWQVLLLVNGAQLCGGTLINTIWVVSAAHCFDKIKNWRNLIAVLGEHDLSEHDGDEQARRVAQVIIPSTYVPGTTNHDIALLRLHQPVVLTDHVVPLCLPERTFSERTLAFVRFSLVSGWGRLLDRGATALELMVLNVPRLMTQDCLQQSRKVGDSPNITEYMFCAGYSDGSKDSCKGDSGGPHATHYRGTWYLTGIVSWGQGCATVGHFGVYTRVSQYIEWLQKLMRSEPRPGVLLRAPFP |  | 1.11e+08 M⁻¹ s⁻¹ |  |
| T239V-FVIIa (enzyme) ANAFLEELRPGSLERECKEEQCSFEEAREIFKDAERTKLFWISYSDGDQCASSPCQNGGSCKDQLQSYICFCLPAFEGRNCETHKDDQLICVNENGGCEQYCSDHTGTKRSCRCHEGYSLLADGVSCTPTVEYPCGKIPILEKRNASKPQGRIVGGKVCPKGECPWQVLLLVNGAQLCGGTLINTIWVVSAAHCFDKIKNWRNLIAVLGEHDLSEHDGDEQSRRVAQVIIPSTYVPGTVNHDIALLRLHQPVVLTDHVVPLCLPERTFSERTLAFVRFSLVSGWGQLLDRGATALELMVLNVPRLMTQDCLQQSRKVGDSPNITEYMFCAGYSDGSKDSCKGDSGGPHATHYRGTWYLTGIVSWGQGCATVGHFGVYTRVSQYIEWLQKLMRSEPRPGVLLRAPFP |  | 4.64e+07 M⁻¹ s⁻¹ |  |
| H257A/M298Q-FVIIa (enzyme) ANAFLEELRPGSLERECKEEQCSFEEAREIFKDAERTKLFWISYSDGDQCASSPCQNGGSCKDQLQSYICFCLPAFEGRNCETHKDDQLICVNENGGCEQYCSDHTGTKRSCRCHEGYSLLADGVSCTPTVEYPCGKIPILEKRNASKPQGRIVGGKVCPKGECPWQVLLLVNGAQLCGGTLINTIWVVSAAHCFDKIKNWRNLIAVLGEHDLSEHDGDEQSRRVAQVIIPSTYVPGTTNHDIALLRLHQPVVLTDAVVPLCLPERTFSERTLAFVRFSLVSGWGQLLDRGATALELQVLNVPRLMTQDCLQQSRKVGDSPNITEYMFCAGYSDGSKDSCKGDSGGPHATHYRGTWYLTGIVSWGQGCATVGHFGVYTRVSQYIEWLQKLMRSEPRPGVLLRAPFP |  | 1.67e+07 M⁻¹ s⁻¹ |  |

The next lines start with the values.

| kcat/KM, TF-independent assay [M⁻¹ s⁻¹] | kcat/KM (M^-1s^-1), TF-dependent assay | kcat/KM, TF-dependent assay [M⁻¹ s⁻¹] | Molecule |
| --- | --- | --- | --- |
|  | 3.48e+07 M⁻¹ s⁻¹ |  | WT (NovoSeven-RT®) (enzyme) |
| 218 | 2.52e+08 M⁻¹ s⁻¹ |  | {Gla swap FIX/K43I}/T128N/P129A/Q286R/M298Q/Q366N-FVIIa (enzyme) |
| 389 | 2.71e+08 M⁻¹ s⁻¹ |  | {Gla swap FIX/K43I}/T128N/P129A/Q286R/M298Q-FVIIa (enzyme) |
| 20.5 |  |  | Gla swap FIX/S222A/H257S/Q286R-FVIIa (enzyme) |
| 20.3 |  |  | Gla swap FIX/S222A/T239I/Q286R-FVIIa (enzyme) |
|  | 3.98e+07 M⁻¹ s⁻¹ |  | WT (NovoSeven®) (enzyme) |
| 77.8 | 8.17e+07 M⁻¹ s⁻¹ |  | T128N/P129A/T239I/Q286R/M298Q-FVIIa (enzyme) |
| 290 | 2.36e+08 M⁻¹ s⁻¹ |  | T128N/P129A/T239V/Q286R/M298Q/H373F-FVIIa (enzyme) |
| 21.3 | 6.98e+07 M⁻¹ s⁻¹ |  | Q286R/S222A/H257A-FVIIa (enzyme) ANAFLEELRPGSLERECKEEQCSFEEAREIFKDAERTKLFWISYSDGDQCASSPCQNGGSCKDQLQSYICFCLPAFEGRNCETHKDDQLICVNENGGCEQYCSDHTGTKRSCRCHEGYSLLADGVSCTPTVEYPCGKIPILEKRNASKPQGRIVGGKVCPKGECPWQVLLLVNGAQLCGGTLINTIWVVSAAHCFDKIKNWRNLIAVLGEHDLSEHDGDEQARRVAQVIIPSTYVPGTTNHDIALLRLHQPVVLTDAVVPLCLPERTFSERTLAFVRFSLVSGWGRLLDRGATALELMVLNVPRLMTQDCLQQSRKVGDSPNITEYMFCAGYSDGSKDSCKGDSGGPHATHYRGTWYLTGIVSWGQGCATVGHFGVYTRVSQYIEWLQKLMRSEPRPGVLLRAPFP |
